The target of one data set is FLAG-HA-Atoh1 (UniProt Q92858). As to the kind of experiment: anti-HA IP of FLAG-HA-Atoh1 293T lysate, LC-MS/MS, ComPASS.
Turning to ZYX (from UniProt Q15942 2-572), the D^N Score stood at 1.58 and the Z score was found to be 5.48.

In the case of SLC3A2 (from UniProt P08195 2-529), the D^N Score turned out to be 1.41 and the Z score worked out at 5.71.

In the case of SRI (from UniProt P30626 1-198), the D^N Score was found to be 1.41 and the Z score was 5.71.

BCKDHA (from UniProt P12694 46-445) displayed a D^N Score of 2 and a Z score of 5.54.

On to FLNC (from UniProt Q14315 1-2725), for which the D^N Score was 1.15 and the Z score came to 5.21.

Take ENAH (from UniProt Q8N8S7 1-591): the D^N Score is 1.41 and the Z score was determined as 5.71.

Take SEC23B (from UniProt Q15437 2-767): the D^N Score was determined as 1 and the Z score was found to be 5.03.

Take “NEK9 (from UniProt Q8TD19 2-979) (enzyme)”: the D^N Score is 2.83 and the Z score came to 5.54.

In turn, “HECT, UBA and WWE domain containing 1 (Huwe1) protein, Q7Z6Z7 1-4374” registered a D^N Score of 1.5 and a Z score of 5.56.

For the substance TCF12 (from UniProt Q99081 1-682), the D^N Score was 2.45 and the Z score stood at 5.71.

Take CTPS2 (from UniProt Q9NRF8 1-586): the D^N Score worked out at 2.45 and the Z score is 5.6.

As for AHSA1 (from UniProt O95433 1-338), the D^N Score came out at 1 and the Z score amounted to 5.03.

Substance GFAP (from UniProt P14136 1-432) showed a D^N Score of 2.45 and a Z score of 5.71.

Regarding PDXK (from UniProt O00764 1-312), the D^N Score worked out at 1.41 and the Z score is 5.71.

Regarding PRDX4 (from UniProt Q13162 38-271), the D^N Score worked out at 1.23 and the Z score was found to be 4.6.

The substance TUBB2B (from UniProt Q9BVA1 1-445) gave a D^N Score of 2.58 and a Z score of 4.36.

As to CCDC124 (from UniProt Q96CT7 1-223), the D^N Score amounted to 1 and the Z score is 5.03.

On to NT5DC2 (from UniProt Q9H857 1-520), for which the D^N Score was 2 and the Z score turned out to be 5.71.

Substance SERPINH1 (from UniProt P50454 19-418) displayed a D^N Score of 1 and a Z score of 3.92.

Take TUBA4A (from UniProt P68366 1-448): the D^N Score was determined as 3 and the Z score came out at 3.77.

Substance PRPS1 (from UniProt P60891 2-318) displayed a D^N Score of 1.23 and a Z score of 4.6.

Consider CPOX (from UniProt P36551 111-454), for which the D^N Score was 2 and the Z score was 5.54.

PDE4D (from UniProt Q08499 1-809): the D^N Score is 1.41 and the Z score came to 5.71.

ACOX1 (from UniProt Q15067 1-660) gave a D^N Score of 1.41 and a Z score of 5.71.

EIF2C2 (from UniProt Q9UKV8 1-859) showed a D^N Score of 3.16 and a Z score of 5.72.

Turning to FHL3 (from UniProt Q13643 2-280), the D^N Score came to 1 and the Z score came out at 5.16.

Take EIF2C1 (from UniProt Q9UL18 1-857): the D^N Score came out at 1 and the Z score was 5.16.

As for “USP47 (from UniProt Q96K76 1-1375) (enzyme)”, the D^N Score turned out to be 2 and the Z score is 5.54.

Regarding “USP11 (from UniProt P51784 1-963) (enzyme)”, the D^N Score came to 1.41 and the Z score was 5.42.

Turning to TNRC6C (from UniProt Q9HCJ0 1-1936), the D^N Score worked out at 2 and the Z score was found to be 5.71.

The substance “MAPK3 (from UniProt P27361 2-379) (enzyme)” showed a D^N Score of 2 and a Z score of 5.71.

In the case of EIF2C3 (from UniProt Q9H9G7 1-860), the D^N Score is 1 and the Z score amounted to 5.16.

Take SEC23A (from UniProt Q15436 2-765): the D^N Score was 1.23 and the Z score stood at 5.24.

For the substance AAMP (from UniProt Q13685 1-434), the D^N Score turned out to be 1 and the Z score turned out to be 5.03.

Regarding YARS2 (from UniProt Q9Y2Z4 17-477), the D^N Score was found to be 1.41 and the Z score was 5.71.

Consider ATP2A1 (from UniProt O14983 1-1001), for which the D^N Score stood at 1.41 and the Z score was 5.71.

In the case of TUBA1C (from UniProt Q9BQE3 1-449), the D^N Score came out at 1.39 and the Z score stood at 2.88.

The substance TCF3 (from UniProt P15923 1-654) displayed a D^N Score of 3.16 and a Z score of 5.57.

The target in another data set is FLAG-HA-Atoh1 (UniProt Q92858). As to the kind of experiment: MS of 450 kDa Coomassie band from FLAG-HA-Atoh1 IP.
The substance MACF1 (from UniProt Q9UPN3 1-7388) returned a Total peptide of 51 and a Unique peptide of 50.

The substance UTRN (from UniProt P46939 1-3433) came in with a Total peptide of 30 and a Unique peptide of 30.

On to “UBR5 (from UniProt O95071 2-2799) (enzyme)”, for which the Total peptide is 31 and the Unique peptide amounted to 26.

As for PLEC (from UniProt Q15149 1-4684), the Total peptide amounted to 17 and the Unique peptide turned out to be 16.

“MYCBP2 (from UniProt O75592 1-4678) (enzyme)” gave a Total peptide of 51 and a Unique peptide of 47.

The substance SACS (from UniProt Q9NZJ4 1-4579) had a Total peptide of 12 and a Unique peptide of 12.

Turning to SON (from UniProt P18583 2-2426), the Total peptide is 22 and the Unique peptide amounted to 20.

In turn, “HECT, UBA and WWE domain containing 1 (Huwe1) protein, Q7Z6Z7 1-4374” showed a Total peptide of 279 and a Unique peptide of 122.

In turn, AKAP9 (from UniProt Q99996 1-3907) displayed a Total peptide of 26 and a Unique peptide of 26.

Substance “RNF213 (from UniProt Q63HN8 1-5207) (enzyme)” had a Total peptide of 32 and a Unique peptide of 30.

For the substance MDN1 (from UniProt Q9NU22 1-5596), the Total peptide came out at 41 and the Unique peptide stood at 37.

Consider TRRAP (from UniProt Q9Y4A5 2-3859), for which the Total peptide worked out at 12 and the Unique peptide was 12.

In turn, GOLGB1 (from UniProt Q14789 1-3259) had a Total peptide of 12 and a Unique peptide of 10.

Substance KIF11 (from UniProt P52732 1-1056) came in with a Total peptide of 79 and a Unique peptide of 46.

CEP350 (from UniProt Q5VT06 1-3117) displayed a Total peptide of 23 and a Unique peptide of 21.

The substance SRRM2 (from UniProt Q9UQ35 1-2752) showed a Total peptide of 53 and a Unique peptide of 38.

For PRRC2C (from UniProt Q9Y520 1-2896), the Total peptide worked out at 26 and the Unique peptide stood at 21.

In the case of DMXL1 (from UniProt Q9Y485 1-3027), the Total peptide was 13 and the Unique peptide stood at 12.

In the case of MGA (from UniProt Q8IWI9 1-3065), the Total peptide amounted to 29 and the Unique peptide was found to be 27.

In the case of “PRKDC (from UniProt P78527 1-4128) (enzyme)”, the Total peptide is 161 and the Unique peptide amounted to 112.

MAP1B (from UniProt P46821 2-2468) yielded a Total peptide of 133 and a Unique peptide of 78.

As for DYNC1H1 (from UniProt Q14204 2-4646), the Total peptide was 87 and the Unique peptide was 75.

Substance “HERC2 (from UniProt O95714 1-4834) (enzyme)” had a Total peptide of 36 and a Unique peptide of 34.

The substance MAP1A (from UniProt P78559 1-2803) came in with a Total peptide of 15 and a Unique peptide of 14.

A further data set concerns the target FLAG-HA-Atoh1 (UniProt Q92858).
Assay: not given
For the substance “HECT, UBA and WWE domain containing 1 (Huwe1) protein”, the “poly-ubiquitylation of Atoh1 after Huwe1 knockdown (shRNA)” value is on record as “decreased poly-ubiquitylation was observed after Huwe1 knockdown”.

The test system of the next data set is FLAG-Atoh1.
Assay: not given
As to Myc-Huwe1 C4341A, the “wild-type and K48 poly-ubiquitylated Atoh1” value is “The resulting decrease in both wild-type and K48 poly-ubiquitylated Atoh1”.

The record behind these values is patent publication US20190203210A1.
